Experimental data from the nanobody polyreactivity screen of Harvey et al. (2022).

test: yeast display, Sf9 membrane polyspecificity reagent, FACS + sequencing; frameworks hold sequencing errors
Procedure, shortened: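 Galactose-induced (36–48 hours) yeast carrying a synthetic nanobody display library were exposed to 10% biotinylated, detergent-solubilized Sf9 membrane reagent at 4 °C for 1 hour. FACS followed streptavidin microbead enrichment, using low and high (top ~1%) gates for expression (anti-HA) and reagent binding (streptavidin). Colony PCR, MiSeq 2 × 250 sequencing and CDR-length filtering followed. Labels for polyreactivity reflect the gate of origin.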

Row | Sequence | polyreactivity (PSR sort gate)
1 | QVQLVESGGGVVQAGGSIRLSCAASGRIFTSNAMGWNRQAPGKETELDAAISGSGGRTYYADSVKGRFTISRDNAKNTVYLQMNSLKPEDTAVYDCNARYYTSGIAYSYYYWGQGTQGTVSS | high polyreactivity
2 | QVQLVESGGGVVQAGGSIRLSGAASGRIFGEYAMGWYRPAPAKERELGAAISGGGSTYYADSVKGRFTISRDNAKNTVYLQMNSLKPEDTAVYYCAVYSVYHEYDYGGQGTQVTVSS | low polyreactivity
3 | QVQLVESGGGVVQAGGSLRISCAASGSTFVRYAMGWYRQAPGKERELVASISSSGSTYYADSVKGRFTISRDYAKNTVNVELNCLNPEDNAVYYCAKQYGGRYGYWGQGSQVTVSS | low polyreactivity
4 | QVQLVESGGGVVQAGGSLRLSCAASGFIFTFYAMGWYRQAPGKERELVAAITGRGGRTYYADSVKGRFTISRDNAKNTVYLQMNSLKPEDTAVYYCAARYRYSVTPGYVYWGQGTQVTLSS | high polyreactivity
5 | QVQLVESGGGVVQAGGSLRLSCAASGFLFSHNAMGWYRQAPGKERELVASITSAGTTYYADSVKGRFTISRDNAKNTVYLQMNSLKPEDTAVYYCNKGGSSPVDIYITGDGDYWGQGTQVTVSS | low polyreactivity
6 | QVQLVESGGGVVQAGGSLRLSCAASGLIFYLYAMGWYRQAPGKERELVAGITSGGGSTYYADSVKGRFTISRDNAQNTVYLQMNSLKPEDTAVDDCAARLVLYITVVYEDDYWGQGTQGTVSS | low polyreactivity
7 | QVQLVESGGGVVQAGGSLRLSCAASGLIIPFYARGWYRQAPGKERELVAAISWSAGSTYYADSVKGRFTMSRDNAKTTVYLQMNSLKPEDTAVYYCATDRNPADFYWGQGTQVTVSS | low polyreactivity
8 | QVQLVESGGGVVQAGGSLRLSCAASGRIFIYYTMGWYRQAPGKEREFVAAITYSGGSTRYADSVKGRFTISRDNAKNTVYLQMNSLKPEDTAFYYCAAKFSVRRGFDYWGQGTQVTVSS | low polyreactivity
9 | QVQLVESGGGVVQAGGSLRLSCAASGRIFRYNAMGWYRQAPGKEREVVAGISFSGGSTYYADSVKGRFTISRDNAKNTVYLQMNSLKPEDTAVYYCNAYGRYSYPTFDYWGQGTQVTVSS | high polyreactivity
10 | QVQLVESGGGVVQAGGSLRLSCAASGRIFVGYDMGWYRQAPGKEWELVAAINRSGSSTYYADSVKGRFTISRDNAKNTVYLQMNSLKPEDTAVYYCNDRSGNRYGPRYDYWGQGTQVTVSS | high polyreactivity
11 | QVQLVESGGGVVQAGGSLRLSCAASGRTFNYYAMGWYRQAPGKERELVAAISRTATTYYADSVKGRFTISRDNAKNTVYLQMNSLKPEDTAVYYCAARSYSSSFSYRHYYWGQGTQVTVSS | high polyreactivity
12 | QVQLVESGGGVVQAGGSLRLSCAASGRTFQFNAMGWYRQAPGKERELVATIDDPSGGTYYADSVKGRFTISRDNAKNTVYLQMNSLKPEDTAVYYCAADRWDSRYETYRYDYWGQGTQVTVSS | low polyreactivity
13 | QVQLVESGGGVVQAGGSLRLSCAASGRTSGSYAMGWYRQAPGNERELVAVITTSDGSTYYADSVKGRFTISRDNAKNTVYLQMNSLKPEDTAVYYCNVDYPNLWYDSYYYWGQGTQVTVSS | low polyreactivity
14 | QVQLVESGGGVVQAGGSLRLSCAASGSFFYVYAMGWYRQAPGKERELVAAITATYYADSVKGRFTISRDNAKNTVYLQMNSLKPEDTAVYYCAAAPWTYWEDYDFWGQGTQVTVSS | low polyreactivity
15 | QVQLVESGGGVVQAGGSLRLSCAASGSIFKSYAMGWYRQAPGKERELVAAITWSGGSTHYADSVKGRFTISRDNAKNTVYLQMNSLKPEDTAVYYCAADGYTGQAELDSWGQGTQVTVSS | low polyreactivity
16 | QVQLVESGGGVVQAGGSLRLSCAASGSIFLRYAMGWYREAPGKERELVAAITSSGGSTYYADSVKGRFTISRDNAKNTVYLQMNSLKPQDNAVYYCNARAYTRYSRLDYWGQGTQVSVSS | high polyreactivity
17 | QVQLVESGGGVVQAGGSLRLSCAASGSIFPINAMGWYRQAPGKERELVAAITSGGSTNYADSVKGRFTISRDNAKNTVYLQMNSLKPEDTAVYYCAADWRYWRWAFDYWGQGTQVTVSS | high polyreactivity
18 | QVQLVESGGGVVQAGGSLRLSCAASGSIFYSYAMGWYRQAPGKERELVAAISSSGTSTYYADSVKGRFTISRDNAKNTVYLQMNSLKPEDTAVYYCAARFYGTSYYRYNYWGQGTQVTVSS | high polyreactivity
19 | QVQLVESGGGVVQAGGSLRLSCAASGSIFYYYAMGWYRQAPGKERELVASITHTGGSTNYADSVKGRFTISRDNAKNTVYLQKNSLKPEDTAVYYCAAEYWNDNYSDPLYDYWGQGTQVTVSS | low polyreactivity
20 | QVQLVESGGGVVQAGGSLRLSCAASGSTFARKAMGWYRPAPGKERELVAAITYSGGRTYYADSVKGRVTISRDNAKNTVYLQMNRLKPVDTAVYYCAVKSFSGHGDYWGQGTQVTLSS | low polyreactivity
21 | QVQLVESGGGVVQAGGSLRLSCAASGTFYLYAMGWYRQAPGKERELVAAISGSGSTNYADSVKGRFTISRDNAKNTVYLQMNSLKPEDTAVYYCAAYQRYDSVTGARYEYDYWGQGTQVTVSS | low polyreactivity
22 | QVQLVESGGGVVQAGGSLRLSCAAYGRTFYVYTLGWYRPAPGKERELVAANTSGGSTNYADCVMGRFTISRDYAKNTVYLQMNSLKPEDTAVYYCAAKRYNRLRSYRYSDREDYWGQGTQVTVSS | high polyreactivity

Row | Sequence | polyreactivity (PSR sort gate)
23 | QVQLVESGGGVVQAGGSLRLSCAGSGFIFSYYTMGWYRQAPGKERELVAAITSGGSTNYADSVKGRFTISRDNAKNTVYLQMNSLKPEDTAVYYCNALLWAWTLWGSGYDYWGQGTQVTVSS | low polyreactivity
24 | QVQLVESGGGVVQAGGSLRLSCSASGSTFLGYVMGWYRQAPGKEREFVAVISRSGGDTYYADSVKGRFTISRDNAKNTVYLQMNSLKPEDTAVFYCNTRVRASSVDYDEGDYWGQGTQVTVSS | low polyreactivity
25 | QVQLVESGGGVVQAGRSLRLSCAASGRLFYEYAMGWYRQAPGKEREFVAAISYSGSRTYYADSVKGRFTISRDNAKYTVYLQLNCLIPEDTAVYYCAAVVAFGTGTFYYWGQGRQVTVSS | high polyreactivity
26 | QVQLVESGGGVVQSRGSLRLTCAASGRIFLQYAMGWYRQAPWKERELVAAIEWSGGRTYYADSVKGRFTISRDNAKNTVYLQMNSLTPEDTAVYYCAARRISGSAVRGSRGYWGQGTQVTVSS | high polyreactivity
27 | QVQLVESGGLLVQAGGILRLSCAASGITFQYYAMGWSRQAPGKERELVAANTSSGVSTYYADSVKGRFTISRDNAKNTVYFQMNSLKPEDTAVYYCNTVVRGWSSSADDYWVQGTQVTVSS | low polyreactivity
28 | QVQLVESGGLLVQAGGSIRITCAASGSTLWFNAMGWYRQAPGKERELVAAINWSGGSTYYADSVKGRFSISRDNAKITVYVQMTSLKPEDTAVYYCAAFYQYVHYVWYDYWGQGSQVTVSS | low polyreactivity
29 | QVQLVESGGLLVQAGGSLRLSCAASGFIFNQYAMGWDRQAPAKVREFVAGISWSGGATYYADSVKGRFTISRDNAKNTVYLQMNSLKPEETAVYYCAADRTYSFYYTQGYEYWGQGTHVTVSS | low polyreactivity
30 | QVQLVESGGPLVQAGGSLRLSFAACGFTLWSYSLGWYRQAPGKESELVAAINSRGGRTSYADSVKGRFTISRDNAKNTVYLQINRLKPEDTAVYYCATDPISRARLYGQRDYWGQGTQVTVSS | high polyreactivity
31 | QVQLVESGGRIFQAGGSLRLSCAASGLIFPYYVMGWYRQAPGKERELVADITWSGGRTYYADSVKGRFTISRDNAKNTVYLQMNSLKPEDTSVYYCKAETGGVYDNYYYVGEYYFWGQGTQVTVSS | low polyreactivity
32 | QVQLVESGGRIVQAGGSLRLSCDASGSTIFGNGMGWYRQAPGKERELVAAISGGGSTHYADSVKGRFTISRDNAKNTVYLQMNSVKPEDTAVYYCSPSRDTDGRGPIQRDFWGQGTQVTVSS | low polyreactivity
33 | QVQLVESGGRLDQAGGSLRLSCAASGRIFSRNTMGWYRQAPGKERELVATITSAGSTSFADSVKGRFTISRDNAKNTVYLQMNSLKPENTAVYYCAKRGAYATGRRYDPYGYWGQGTQVTVSS | high polyreactivity
34 | QVQLVESGGRLDQARGSLRLSCAASGYNFQPYAMGWYRLAPGKERDLVAAISWRGGSTYYADSVKGRFTISRDNAKNTVYLQMTSLKPEDTAVYYCAKDYYYGLEHYGYWGQGTQVTVSS | low polyreactivity
35 | QVQLVESGGRLLQAGGSLRLSCAASGRIIGLYAMGWYRPAPGKEWEFVAAINWDGGSTFYADSVKGRFTISRDNAKNSVYLQMNSLQPEDTAVYYCAADVYSYVSNCTYVSVFTYDYWGHGTQVTVSS | low polyreactivity
36 | QVQLVESGGRLVPAGGSLRLTCAASGIISVYYVMGWYRPAPGKERELVAAINRSGGNTYYADSVKGRFTISRDNAKNTVYLQMNSLKPEDTAVYYCKASLYFYRYGHDDESDYWGQGTQVTVSS | high polyreactivity
37 | QVQLVESGGRLVQAGASLRLSCAASGRILYWNTMGWYRQAPGKERELVASITQNVGSTYYADSVKGRFTISRDNAKNTVYLQMISMIPEDTAVYYCAAKRLSWHRYGYWGQGTQVTVSS | low polyreactivity
38 | QVQLVESGGRLVQAGASLRLSCAASGSTFSTNAMGWYRQAPGKEREFVPAISRSGGRTYYADSVKGRFTISRDNAKNTVYLQMNSLKRDDTAVYYCAAGITHEGRDGDYWGQGTQVTVSS | high polyreactivity
39 | QVQLVESGGRLVQAGCSLRLSCAASGFTFYQNAMGWYRQAPGKVRELVAAISVSGDSTYYADSVKGRLTISRDNAKNTVYLQMNSLKPEDTAVYYCTEYFYYLSLYYYYWFNYDYWGHGTQVTVSS | low polyreactivity
40 | QVQLVESGGRLVQAGGRLPLSCAASGSIFTGNAMGWYRQAPGKERELVAAITQRGGRTYYADSVKGRFTISRDNSKNTVYLQMNSLKPEDTAVYYCAADPPGYVYGKRYYWGQGTQVTVSS | high polyreactivity
41 | QVQLVESGGRLVQAGGRLRLSCAASGRTILLYAMGRYRQAPGKESELVPAIRSSTVSTYYADSVKGRFTISRDNAKNTVYLQMYSLKPEDTAVYYCAASRPKYGPSGVRYNYWGQGTQVTVSS | high polyreactivity
42 | QVQLVESGGRLVQAGGRLRLSCAASGSIFLYNARGWYRQAPGKERELVAAINYSGVSTYYADSVKGRFTISRDNAKNTVYLQMNSLKPEDTAVYYCARRWNAFGSKGGYWGQGTQVTVSS | high polyreactivity
43 | QVQLVESGGRLVQAGGRLRLSCAASGSISASYAMGWYRQAPGKERELVAAITSGGSTYYADSVKGRFTISRDNAKYTVYLQMNSLKPEDTAVYYCAKRPKRTYYPHIGYDYWGLGTQVTVSS | low polyreactivity
